According to publication PMC10901769, “An anti-CRISPR that represses its own transcription while blocking Cas9-target DNA binding”:

Legend:
[1] = target: T1, AcrIIA15 full-length (UniProt PDB:8JG9_3 1-171); experiment: SEC; no stable binding; Promoter EMSA: 20 mM Tris-HCl pH 7.5, 300 mM NaCl, on ice/4 C, 30 min; SaCas9 EMSA: 20 mM Tris pH 7.5, 200 mM NaCl, 10 mM EDTA, RT; SPR: 10 mM Na2HPO4, 2 mM KH2PO4, 0.3 M NaCl; SEC: 20 mM Tris pH 7.5, 300 mM NaCl; conditions: protein: recombinant; tags: C-terminal His6, or His6-Sumo removed by Ulp1; chain copies: 2; blunt
T1 sequence: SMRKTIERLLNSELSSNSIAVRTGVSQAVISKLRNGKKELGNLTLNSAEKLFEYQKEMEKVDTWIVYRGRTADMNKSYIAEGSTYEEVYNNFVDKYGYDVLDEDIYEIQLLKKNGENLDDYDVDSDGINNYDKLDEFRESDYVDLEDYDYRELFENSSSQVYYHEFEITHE

[2] = target: T2, AcrIIA15 NTD (UniProt PDB:8JFR_1 1-63); experiment: EMSA; Promoter EMSA: 20 mM Tris-HCl pH 7.5, 300 mM NaCl, on ice/4 C, 30 min; SaCas9 EMSA: 20 mM Tris pH 7.5, 200 mM NaCl, 10 mM EDTA, RT; SPR: 10 mM Na2HPO4, 2 mM KH2PO4, 0.3 M NaCl; SEC: 20 mM Tris pH 7.5, 300 mM NaCl; conditions: protein: recombinant; tags: C-His6 or His6-Sumo (removed); chain copies: 2; blunt
T2 sequence: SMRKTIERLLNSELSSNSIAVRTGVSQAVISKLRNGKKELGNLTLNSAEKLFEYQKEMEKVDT

[3] = target: T1, AcrIIA15 full-length; experiment: as above; conditions: protein: recombinant; tags: C-terminal His6, or His6-Sumo removed by Ulp1; chain copies: 2; blunt
[4] = target: T3, AcrIIA15 CTD (UniProt PDB:8JFT_3 1-114); experiment: as above; conditions: protein: recombinant; tags: C-His6 or His6-Sumo (removed); blunt
T3 sequence: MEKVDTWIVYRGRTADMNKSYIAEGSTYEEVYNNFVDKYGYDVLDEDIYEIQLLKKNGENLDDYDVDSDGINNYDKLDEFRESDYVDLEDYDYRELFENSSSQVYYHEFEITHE

[5] = target: T4, SaCas9;AcrIIA15 CTD (Staphylococcus aureus;, UniProt J7RUA5;PDB:8JFT_3 1-1053;1-114, |); experiment: cryo-EM; Promoter EMSA: 20 mM Tris-HCl pH 7.5, 300 mM NaCl, on ice/4 C, 30 min; SaCas9 EMSA: 20 mM Tris pH 7.5, 200 mM NaCl, 10 mM EDTA, RT; SPR: 10 mM Na2HPO4, 2 mM KH2PO4, 0.3 M NaCl; SEC: 20 mM Tris pH 7.5, 300 mM NaCl; conditions: protein: recombinant;recombinant; tags: His6-Sumo removed by Ulp1;C-His6 or His6-Sumo (removed); copies: 1;1; hairpin
T4 sequence 1: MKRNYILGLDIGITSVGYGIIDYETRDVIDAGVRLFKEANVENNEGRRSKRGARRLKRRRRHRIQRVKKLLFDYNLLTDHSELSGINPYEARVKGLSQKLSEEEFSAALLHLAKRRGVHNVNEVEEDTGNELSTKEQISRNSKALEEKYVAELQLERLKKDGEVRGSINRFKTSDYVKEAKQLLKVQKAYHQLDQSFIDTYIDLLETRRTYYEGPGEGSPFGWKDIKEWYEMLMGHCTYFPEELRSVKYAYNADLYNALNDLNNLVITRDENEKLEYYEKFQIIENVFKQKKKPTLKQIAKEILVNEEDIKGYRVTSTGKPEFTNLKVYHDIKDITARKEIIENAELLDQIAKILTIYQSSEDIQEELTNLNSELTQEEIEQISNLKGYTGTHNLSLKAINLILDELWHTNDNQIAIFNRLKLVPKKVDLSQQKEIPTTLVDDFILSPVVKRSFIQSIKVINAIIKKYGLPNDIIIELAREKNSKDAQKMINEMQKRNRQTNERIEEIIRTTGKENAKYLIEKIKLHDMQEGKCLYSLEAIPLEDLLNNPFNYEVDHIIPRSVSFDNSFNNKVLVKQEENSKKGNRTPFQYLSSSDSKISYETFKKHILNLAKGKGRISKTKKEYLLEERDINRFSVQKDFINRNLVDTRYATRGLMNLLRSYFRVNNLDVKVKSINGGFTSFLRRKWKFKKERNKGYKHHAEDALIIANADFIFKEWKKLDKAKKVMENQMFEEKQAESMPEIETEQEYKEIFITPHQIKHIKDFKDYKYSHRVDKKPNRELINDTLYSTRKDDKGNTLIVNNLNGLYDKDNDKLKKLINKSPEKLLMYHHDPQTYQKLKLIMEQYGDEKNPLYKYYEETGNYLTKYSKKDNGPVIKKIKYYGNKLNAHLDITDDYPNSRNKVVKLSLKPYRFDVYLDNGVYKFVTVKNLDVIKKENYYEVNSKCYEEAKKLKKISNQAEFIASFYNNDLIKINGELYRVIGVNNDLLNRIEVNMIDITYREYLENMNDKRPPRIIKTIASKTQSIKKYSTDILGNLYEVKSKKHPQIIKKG
T4 sequence 2: T3 sequence

[6] = target: T5, SaCas9;AcrIIA15 full-length (Staphylococcus aureus;, UniProt J7RUA5;PDB:8JG9_3 1-1053;1-171, |); experiment: cryo-EM; with IR1 DNA; Promoter EMSA: 20 mM Tris-HCl pH 7.5, 300 mM NaCl, on ice/4 C, 30 min; SaCas9 EMSA: 20 mM Tris pH 7.5, 200 mM NaCl, 10 mM EDTA, RT; SPR: 10 mM Na2HPO4, 2 mM KH2PO4, 0.3 M NaCl; SEC: 20 mM Tris pH 7.5, 300 mM NaCl; conditions: protein: recombinant;recombinant; tags: His6-Sumo removed by Ulp1;C-terminal His6, or His6-Sumo removed by Ulp1; chain copies: 2;2; hairpin
T5 sequence 1: T4 sequence 1
T5 sequence 2: T1 sequence

B1: IR1' (dsDNA)
DNA 1: TTATGACAAATGTCATAG
DNA 2: CTATGACATTTGTCATAA
[1]
  binding result: no binding

B2: IR1-IR2 (dsDNA)
DNA 1: ATAATTATGACAAATGTCATAGAAAAGCGTTGACTTATGACGAACGTCATAATATA
DNA 2: TATATTATGACGTTCGTCATAAGTCAACGCTTTTCTATGACATTTGTCATAATTAT
[2]
  binding result: binds
[3]
  binding result: binds
[4]
  binding result: no binding

B3: SaCas9 sgRNA (structured_RNA)
RNA: GGUCUGCUAUUUCUAUUUACGUUUUAGUACUCUGGAAACAGAAUCUACUAAAACAAGGCAAAAUGCCGUGUUUAUCUCGUCAACUUGUUGGCGAGAUC
[5]
  binding result: binds
[6]
  binding result: binds
